Tests used:
Dbp2 = Dbp2 (Saccharomyces cerevisiae, UniProt P24783 1-546); assay: fluorescence anisotropy
MBP-DDX5-GST = MBP-DDX5-GST (Homo sapiens, UniProt P17844 1-614); assay: fluorescence anisotropy
MBP-DDX5-GST, sequence (P17844 whole entry): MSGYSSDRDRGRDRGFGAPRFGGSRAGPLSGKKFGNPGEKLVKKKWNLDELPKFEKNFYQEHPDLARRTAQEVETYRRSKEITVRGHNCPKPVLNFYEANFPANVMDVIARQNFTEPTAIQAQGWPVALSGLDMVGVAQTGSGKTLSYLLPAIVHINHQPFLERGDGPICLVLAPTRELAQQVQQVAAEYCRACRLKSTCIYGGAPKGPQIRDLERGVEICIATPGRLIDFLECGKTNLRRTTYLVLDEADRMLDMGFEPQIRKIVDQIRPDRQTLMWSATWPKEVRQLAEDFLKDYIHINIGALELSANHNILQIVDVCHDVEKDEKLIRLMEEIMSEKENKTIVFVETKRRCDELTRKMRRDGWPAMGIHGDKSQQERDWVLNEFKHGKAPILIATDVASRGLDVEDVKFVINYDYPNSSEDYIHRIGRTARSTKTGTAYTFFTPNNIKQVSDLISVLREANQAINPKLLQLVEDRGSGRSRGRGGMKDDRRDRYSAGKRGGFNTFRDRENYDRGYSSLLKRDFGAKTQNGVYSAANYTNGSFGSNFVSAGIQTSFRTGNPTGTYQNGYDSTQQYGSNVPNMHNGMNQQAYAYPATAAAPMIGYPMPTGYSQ

Dbp2, sequence (P24783 whole entry): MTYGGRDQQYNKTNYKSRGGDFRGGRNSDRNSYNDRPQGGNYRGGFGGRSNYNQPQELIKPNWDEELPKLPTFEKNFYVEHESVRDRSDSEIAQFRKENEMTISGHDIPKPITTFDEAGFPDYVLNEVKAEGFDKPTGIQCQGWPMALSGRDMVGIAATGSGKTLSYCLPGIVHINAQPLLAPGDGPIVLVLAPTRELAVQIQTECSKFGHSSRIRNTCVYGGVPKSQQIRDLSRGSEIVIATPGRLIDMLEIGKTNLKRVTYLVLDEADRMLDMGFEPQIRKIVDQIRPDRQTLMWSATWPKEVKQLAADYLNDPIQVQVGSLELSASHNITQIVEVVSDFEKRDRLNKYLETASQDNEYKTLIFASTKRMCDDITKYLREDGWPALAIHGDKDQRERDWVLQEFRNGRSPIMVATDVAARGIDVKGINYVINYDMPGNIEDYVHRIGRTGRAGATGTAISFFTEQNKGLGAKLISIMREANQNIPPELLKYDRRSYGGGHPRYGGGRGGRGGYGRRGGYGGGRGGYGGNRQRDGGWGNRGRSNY

## AGCACCGUAAAGACGC (ssRNA) [16-nt ssRNA (6-FAM)]
Dbp2
  binding signal: ~4 fold weaker than MBP-DDX5-GST
MBP-DDX5-GST
  binding signal: ~4 fold tighter than Dbp2
